Measured values taken from US20040053816A1 (COUNCIL OF SCIENTIFIC AND INDUSTRIAL RESEARCH, published 2004).

Molecular target: insulin receptor (IR) of carp adipocytes (carp Catla catla)
Test: cell-based or functional assay

glucose uptake by adipocyte: 2 fold
B1: Purified adipocyte insulin (Adplnsl) of the carp Catla catla (ligand)
chain 1: GIVEQCCHKPCSIFELQNYCN
chain 2: PGAPQHLCGSHLVDALYLVCGPTGFFYNPK
